Experimental data from article PMC5577389.

Target: 6xHis-FN1, the first fibronectin type III repeat (FN1) of the neural cell adhesion molecule NCAM
Assay: ITC

## 6xHis-SUMO-PBR, ST8Sia-IV polybasic region peptide (residues 75-100) fused to an N-terminal 6xHis-SUMO tag (from UniProt Q92187 75-100)
  Kd: 10.9 µM
  dH: 0.991 kcal/mol
  stoichiometry N: 1.06
